Data published in patent US12214021B2 (CHINA AGRICULTURAL UNIVERSITY, priority 2018, dated 2025).
Marks after values point to notes of the source that are not given here.

Experiments:
[1] = contents of calcium and phosphorus in urine of mice; format: in vivo; conditions: LF1000 group
Experimental: In order to reflect the reabsorption of calcium and phosphorus by the kidney, the contents of calcium and phosphorus in urine were measured. In the VD-deficient groups, the calcium content in the LF1000 group is reduced by 67% compared with the control group, and the phosphorus content in the LF1000 group is reduced by 72% compared with the control group; in the VD-normal groups, the calcium content in the LF1000 group is reduced by 80% compared with the control group, and the phosphorus content in the LF1000 group is reduced by 78% compared with the control group.

[2] = test system: VDR; assay: VDR protein expression in cytoplasm and nucleus of osteoblasts after LF for different times; format: cell-based
Experimental: After verifying that LF promotes high expression of VDR at the transcription level, it is further verified at the protein level. VDR exists in the cytoplasm and nucleus, but plays a major role in the nucleus. The inventors stimulated osteoblasts for different times using LF to measure the expression of VDR in the cytoplasm and nucleus. […] In the nucleus, VDR expression began to increase at 1 hour after LF treatment, and reaches the maximum at 2-6 h.

[3] = test system: VDR; assay: immunohistochemistry of VDR expression in mouse kidney, colon and bone tissue; format: in vivo, mice; conditions: for VDR-positive cell rate in the kidney: FIG. 9; for VDR positive cell rate in the colon (positive cells to total cells in each crypt): FIG. 11
Description: The immunohistochemical technique was used to detect the expression of VDR in kidney tissues.

[4] = test system: VDR; assay: effect of inhibition of endocytosis (hypertonic, 4° C.) on VDR expression promoted by LF in MC3T3-E1 cells; format: cell-based; conditions: under the condition of inhibiting endocytosis (hypertonic, 4° C.), FIG. 18
Experimental: Studies have shown that LF can directly enter the cell and bind with DNA to regulate cell gene expression. Therefore, in order to study the effect of endocytosis, cells were stimulated with LF under culture conditions that inhibit endocytosis, and the inhibitory effect on the endocytosis of LF were detected firstly. […] Then, the promotion effect of LF on VDR was measured to analyze whether the inhibition of endocytosis affected the expression of VDR promoted by LF to determine the site of action of LF.

[5] = micro-CT microstructure of trabecular bone of distal femur of mice; format: in vivo; conditions: for BV/TV / TPF / Tb · N / Tb · Sp / Tb · Th: femoral ROI, Mean ± SD, n = 8
Description: According to the micro-building theory, the strength of the trabecular bone depends not only on the BMD, but also on its three-dimensional structure. In pathology, bone damage should include both “quantitative” change and “qualitative” changes. Quantitative change is the decline of BMD, while qualitative change is the change of the microstructure of trabecular bone, such as trabecular number and thickness, trabecular connection, and so on. Trabecular bone plays a major role in the microstructure. Increasing the cross structure of each trabecular bone can increase the supporting strength of the bone, but has basically no effect on bone mineral density.
The distal femur is considered a sensitive site for detecting bone health due to high cancellous bone content and rapid bone turnover. Therefore, the inventors analyzed the microstructure of trabecular bone of the distal femur using micro-CT. […] Therefore, this study mainly analyzed the microstructure of the cancellous trabecular bone of the femur in each group. The three-dimensional structure image of the trabecular bone of the ROI region of the mouse femur obtained by micro-CT reconstruction is shown in FIG. 7A and the longitudinal section is shown in FIG. 7B.
In order to quantitatively analyze the structure of the trabecular bone, the spatial structure parameters of the trabecular bone of the ROI region shown in FIG. 7 were also measured. Trabecular bone structure parameters include the followings: Bone Volume Fraction (BV/TV), which is the ratio of the total volume of voxels representing the bone structure in the ROI to the total volume of all voxels in the region, and when the bone is unhealthy, the trabecular bone is lost and the BV/TV value decreases; trabecular thickness (Tb·Th), which is the average thickness of trabecular bone, and when the bone is unhealthy, the value of Tb·Th decreases, and in porous materials, Tb·Th can be understood as thickness of the pore wall; trabecular number (Tb·N), which is the number of intersections of bone tissue and non-bone tissue within a given length, and when the bone is unhealthy, the value of Tb·N decreases; trabecular separation (Tb·Sp), which is the average width of the medullary cavity between the trabecular bones. An increase in Tb·Sp indicates an increased bone resorption and possible bone loss. Tb. Sp can be understood as porosity. The trabecular pattern factor is used to evaluate the morphology of the trabecular bone. This parameter is determined by the surface area and volume of the trabecular bone, and is a parameter obtained through 3D simulation. The smaller the TPF value, the better the connectivity between trabecular bones. BV/TV, Tb·Th, Tb·N, and Tb·Sp are parameters that can be provided by both micro-CT and bone tissue morphometry. The TPF value is a parameter based on the analysis of the three-dimensional structure of the trabecular bone, can be obtained from micro-CT analysis, but cannot be provided by the traditional two-dimensional method.

[6] = bone mineral density of the femur of mice; format: in vivo
Description: The factors affecting bone mineral density mainly include bone mass factors and bone quality factors. Decreased bone mass is an important factor in the occurrence of common bone diseases, and bone mineral density (BMD) is an important indicator for quantifying bone mass in bone mineral metabolism. The BMD index is of great significance for the prediction of fracture risk, the early diagnosis of osteoporosis and the evaluation of intervention measures.

[7] = test system: VDR; assay: expression of VDR gene (mRNA) in MC3T3-E1 cells under LF stimulation; format: cell-based; conditions: FIG. 1
[8] = test system: osteoblasts; assay: proliferation of osteoblasts promoted by LF (MTT method); format: cell-based; conditions: FIG. 4
Experimental: Based on transcriptome data, the inventors verified that LF can promote the high expression of VDR at both the gene and protein levels. In order to confirm the role of this pathway in the promotion of osteoblast proliferation and differentiation by LF, the inventors first designed a VDR siRNA to achieve the purpose of transiently silencing VDR genes. The principle of siRNA is the post-transcriptional gene silencing mechanism that blocks the expression of corresponding gene. 20 μM VDR siRNA was added to osteoblasts, the proliferation rate of osteoblasts promoted by LF was detected by MTT method, and the ALP activity of osteoblasts promoted by LF was detected by enzyme-linked immunoassay.
The inventors first confirmed that LF promotes the proliferation and differentiation of osteoblasts through the regulation of the VDR pathway using the osteoblast model. Since the osteogenic effect of VDR is mainly achieved by vitamin D, in order to simulate the normal physiological environment, the inventors treated osteoblasts with both 1 nM of […] (the active form of vitamin D) and LF, and then studied the proliferation and differentiation of osteoblasts.

[9] = blood biochemical markers in mice after oral LF; format: in vivo; conditions: for 25-OH VD3 / Ca / P / PTH: blood, Mean ± SD, n = 8
Description: Generally, the content of VD is reflected by measuring the content of 25-OH D3 in the serum. […] The contents of calcium and phosphorus in serum reflect the degree of absorption of calcium and phosphorus in the small intestine. […] However, oral administration of LF still has no effect on serum calcium and phosphorus content.

[10] = test system: VDR; assay: Western blot detection of VDR expression in kidney, colon and bone tissue; format: in vivo, mice
Description: The inventors further verified the expression of VDR in three major tissues, kidney, colon and bone using the Western blot method by extracting the tissue protein.

[11] = osteoblasts, after LF treatment
[12] = VD-normal oral-administered LF group
[13] = VD-deficient LF100-administered group as printed (second such column, c3)
[14] = VD-normal LF100-administered group as printed (second such column, c6)

B1: lactoferrin (protein, UniProt P02788 20-710, looked up)
Lactotransferrin: GRRRSVQWCAVSQPEATKCFQWQRNMRKVRGPPVSCIKRDSPIQCIQAIAENRADAVTLDGGFIYEAGLAPYKLRPVAAEVYGTERQPRTHYYAVAVVKKGGSFQLNELQGLKSCHTGLRRTAGWNVPIGTLRPFLNWTGPPEPIEAAVARFFSASCVPGADKGQFPNLCRLCAGTGENKCAFSSQEPYFSYSGAFKCLRDGAGDVAFIRESTVFEDLSDEAERDEYELLCPDNTRKPVDKFKDCHLARVPSHAVVARSVNGKEDAIWNLLRQAQEKFGKDKSPKFQLFGSPSGQKDLLFKDSAIGFSRVPPRIDSGLYLGSGYFTAIQNLRKSEEEVAARRARVVWCAVGEQELRKCNQWSGLSEGSVTCSSASTTEDCIALVLKGEADAMSLDGGYVYTAGKCGLVPVLAENYKSQQSSDPDPNCVDRPVEGYLAVAVVRRSDTSLTWNSVKGKKSCHTAVDRTAGWNIPMGLLFNQTGSCKFDEYFSQSCAPGSDPRSNLCALCIGDEQGENKCVPNSNERYYGYTGAFRCLAENAGDVAFVKDVTVLQNTDGNNNEAWAKDLKLADFALLCLDGKRKPVTEARSCHLAMAPNHAVVSRMDKVERLKQVLLHQQAKFGRNGSDCPDKFCLFQSETKNLLFNDNTECLARLHGKTTYEKYLGPQYVAGITNLKKCSTSPLLEACEFLRK
notes: natural glycoprotein with a molecular weight of 78 KDa in milk
[1]; VD-deficient groups
  calcium content in urine, reduction compared with the control group: 67%
  phosphorus content in urine, reduction compared with the control group: 72%
[1]; VD-normal groups
  calcium content in urine, reduction compared with the control group: 80%
  phosphorus content in urine, reduction compared with the control group: 78%
[2]; osteoblasts treated with LF
  time after which VDR expression in the cytoplasm began to normalize: 12 h
  time at which VDR expression in the cytoplasm reaches the maximum: 4 h
[2]; osteoblasts treated with LF for two hours
  VDR expression in the cytoplasm: significantly increased
[2]; [11]
  time at which VDR expression in the nucleus began to increase: 1 h
  time at which VDR expression in the nucleus reaches the maximum: 2 to 6 h
[3]; VD-deficient LF100-administered group
  VDR-positive cell rate in the kidney: 13.8%
[3]; VD-deficient LF100-administered group, FIG. 13
  VDR positive cell rate in the femur: 75%
[3]; VD-deficient LF1000-administered group
  VDR-positive cell rate in the kidney: 17%
[3]; VD-deficient LF-administered group
  VDR positive cell rate in the colon (positive cells to total cells in each crypt): more than 70%
[3]; VD-normal LF100-administered group
  VDR-positive cell rate in the kidney: 16.3%
[3]; VD-normal LF1000-administered group
  VDR-positive cell rate in the kidney: 16.5%
[3]; [12]
  VDR positive cell rate in the colon (positive cells to total cells in each crypt): ~80%
[4]
  promotion effect of LF on the expression of VDR in the cytoplasm and nucleus: significantly inhibited
[5]; VD-deficient LF-administered group, FIG. 7
  trabecular bones and cavity in longitudinal section compared with the control group: obviously more trabecular bones and smaller cavity
[5]; VD-deficient groups, low-dose LF group
  BV/TV of the trabecular bone compared with the VD-deficient control group and the VD-normal control group: significantly higher
[5]; [12]
  trabecular structure parameters compared with the control group: comparable to the control group, except for Tb·Th value
[5]; [13]
  BV/TV: 0.252 ± 0.029^b %
  TPF: 7.290 ± 2.128^ab mm^−1
  Tb · N: 5.374 ± 0.501^ab mm^−1
  Tb · Sp: 0.136 ± 0.017^b mm
  Tb · Th: 0.054 ± 0.005^ab mm
[5]; [14]
  BV/TV: 0.28 ± 0.017^ab %
  TPF: 5.599 ± 0.397^b mm^−1
  Tb · N: 6.029 ± 0.586^a mm^−1
  Tb · Sp: 0.141 ± 0.020^b mm
  Tb · Th: 0.057 ± 0.004^ab mm
[6]; VD-deficient LF100-administered group, 5 months oral, p<0.05
  bone mineral density of the femur, increase compared with the VD-deficient control group: 5.67%
[6]; oral administration, VD normal
  effect on bone mineral density when VD is normal: further promote bone mineral density
[7]
  VDR expression at mRNA levels: up to 30 fold
[8]
  effect on promoting the proliferation and differentiation of osteoblasts, compared with 1.25(OH)2D3: stronger effect
[9]; [13]
  25-OH VD3: 14.8 ± 2.39^a ng/mL
  Ca: 1.6 ± 0.13^a mmol/L
  P: 2.33 ± 0.42^a mmol/L
  PTH: 93.69 ± 34.61^b pg/mL
[9]; [14]
  25-OH VD3: 27.61 ± 2.93^b ng/mL
  Ca: 2.25 ± 0.17^b mmol/L
  P: 2.26 ± 0.33^a mmol/L
  PTH: 91.91 ± 13.10^b pg/mL
[9]; oral 1000 mg/kg BW LF in the VD-deficient group
  effect on PTH content: reduce the PTH content
[9]; oral administration of LF
  effect on serum calcium and phosphorus content: no effect
[9]; oral administration of LF vs corresponding control groups
  effect on the 25-OH D3 content in serum: no significant effect
[10]; FIG. 15
  VDR expression in the colon: effectively promote the expression of VDR
[10]; VD deficiency, LF1000-administered group, FIG. 16
  VDR expression in the femur, higher than that of the control group: 3 times
[10]; VD deficiency, oral lactoferrin, FIG. 14
  VDR expression in the kidney: effectively promote the expression of VDR
[10]; VD-normal oral-administered 100 mg LF/kg BW group, FIG. 16
  VDR expression in the femur, higher than that of the VD normal control group: 2.35 times
